Assay results taken from patent US20220235126A1.
Blank lines part the entries; values can stand above or below the substance they belong to.

Experiments:
human FcRn-mmh (human) = human FcRn-mmh (human) (UniProt P55899); experiment: SPR, hFcRn.mmh captured, 25 C, pH 7.4; kinetics inconclusive
[1] = molecular target: hTSLPR and hIL-7R on Baf3 cells (human) (UniProt Q9HC73)
[2] = molecular target: hTSLPR and hIL-7R on Baf3 cells (human) (UniProt Q9HC73); remark: listed apart in the source
[3] = molecular target: hTSLPR and hIL-7R on Baf3 cells (human) (UniProt Q9HC73); experiment: cell-based or functional assay

UniProt Q9HC73, sequence (Q9HC73 23-371, chain 1 of 2): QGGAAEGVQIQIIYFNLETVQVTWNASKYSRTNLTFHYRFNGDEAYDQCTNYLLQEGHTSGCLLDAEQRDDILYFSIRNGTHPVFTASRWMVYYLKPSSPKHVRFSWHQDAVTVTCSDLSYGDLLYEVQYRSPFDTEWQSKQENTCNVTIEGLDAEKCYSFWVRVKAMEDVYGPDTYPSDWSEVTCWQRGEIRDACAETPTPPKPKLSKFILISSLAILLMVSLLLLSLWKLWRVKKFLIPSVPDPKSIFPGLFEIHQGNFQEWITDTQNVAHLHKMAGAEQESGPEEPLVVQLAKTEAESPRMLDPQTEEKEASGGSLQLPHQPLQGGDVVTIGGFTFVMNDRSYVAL
UniProt Q9HC73, sequence (P16871 21-459, chain 2 of 2, further chain): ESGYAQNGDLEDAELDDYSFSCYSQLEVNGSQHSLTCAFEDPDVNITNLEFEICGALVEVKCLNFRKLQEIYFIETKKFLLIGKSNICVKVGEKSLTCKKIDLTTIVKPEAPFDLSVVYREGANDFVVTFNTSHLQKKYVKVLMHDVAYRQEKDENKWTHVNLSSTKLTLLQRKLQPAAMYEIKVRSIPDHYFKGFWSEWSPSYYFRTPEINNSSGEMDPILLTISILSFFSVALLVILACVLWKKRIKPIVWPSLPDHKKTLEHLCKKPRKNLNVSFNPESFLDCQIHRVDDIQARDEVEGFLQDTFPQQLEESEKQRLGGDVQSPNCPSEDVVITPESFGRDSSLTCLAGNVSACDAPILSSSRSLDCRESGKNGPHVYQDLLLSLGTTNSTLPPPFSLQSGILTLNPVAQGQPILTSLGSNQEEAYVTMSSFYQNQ
UniProt P55899, sequence (P55899 24-297): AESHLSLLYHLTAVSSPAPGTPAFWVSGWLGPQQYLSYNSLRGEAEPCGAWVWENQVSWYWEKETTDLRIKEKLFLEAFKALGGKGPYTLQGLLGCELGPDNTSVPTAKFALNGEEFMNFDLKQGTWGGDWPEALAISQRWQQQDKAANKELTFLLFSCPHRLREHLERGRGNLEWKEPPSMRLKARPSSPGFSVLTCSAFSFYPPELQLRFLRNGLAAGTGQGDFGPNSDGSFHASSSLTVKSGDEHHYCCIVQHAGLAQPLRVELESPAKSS

- 5 uM mAb Bound (RU) (human FcRn-mmh (human)): 9.1 RU
Substance: REGN1932, anti-FelD1 IgG1 isotype control (antibody)

- 5 uM mAb Bound (RU) (human FcRn-mmh (human)): 8 RU
Substance: REGN1945, anti-fel d 1 IgG4 isotype control (antibody)

- EC50 of hTSLP mmh in the Stat3-Luc reporter assay (number only, curve not drawn) [1]: 0.075 nM
- EC50, STAT3-luciferase dose response of hTSLP mmh in BAF3/hIL7R/hTSLPR/Stat3-Luc cells [2]: 0.0613 nM
Substance: REGN4009, recombinant hTSLP.mmh (from UniProt Q969D9 29-159) (ligand)

- hTSLP EC50 [M], STAT3-Luciferase reporter assay [3]: 4.35e-11 M
Substance: human TSLP (hTSLP) (from UniProt Q969D9 29-159) (ligand)
